Data set [1] deals with T1, MotA E153A (Enterobacteria phage T4, UniProt P22915 1-211, E153A).
T1 sequence: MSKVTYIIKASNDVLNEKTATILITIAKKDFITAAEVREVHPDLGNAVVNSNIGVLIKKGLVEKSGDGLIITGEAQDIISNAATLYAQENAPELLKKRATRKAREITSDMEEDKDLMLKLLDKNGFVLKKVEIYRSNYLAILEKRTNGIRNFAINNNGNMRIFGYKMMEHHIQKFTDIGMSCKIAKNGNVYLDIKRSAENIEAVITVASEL
Briefly: EMSA; no difference; data not shown; EMSA: 0.01 pmol 32P-DNA, 1.7 pmol MotA, native 12% PAGE in 1x TBE at 4 C, other conditions as in ref 14; SPR: biotin-DNA on neutravidin chip, buffer as in ref 2.

Data set [2] addresses T1, MotA E153A. Briefly: EMSA; slightly tighter than wt; EMSA: 0.01 pmol 32P-DNA, 1.7 pmol MotA, native 12% PAGE in 1x TBE at 4 C, other conditions as in ref 14; SPR: biotin-DNA on neutravidin chip, buffer as in ref 2. For orientation: In EMSA bound probe runs differently from free probe, usually more slowly.
The target in the next data set is T2, MotA Y134A (Enterobacteria phage T4, UniProt P22915 1-211, Y134A).
T2 sequence: T1 sequence with Y134A, A153E
Kind of data set: EMSA; similar to wt; EMSA: 0.01 pmol 32P-DNA, 1.7 pmol MotA, native 12% PAGE in 1x TBE at 4 C, other conditions as in ref 14; SPR: biotin-DNA on neutravidin chip, buffer as in ref 2.

Substitutions are numbered along the chain they refer to.

B1: EMSA 19-mer GHMe/unmod (dsDNA)
DNA 1: AATTATTTGCTTTAGATTA
DNA 2: TAATCTAAAGCAAATAATT
modifications: beta-D-glucosyl-5-hydroxymethyl-dC at top C10
Consider B1, for which the binding result with MotA E153A [1] was “binds”.

B2: EMSA 19-mer unmodified (dsDNA)
DNA 1: AATTATTTGCTTTAGATTA
DNA 2: TAATCTAAAGCAAATAATT
Turning to B2, the binding result with MotA E153A [2] and with MotA Y134A was “binds” throughout.

(Values after paper PMC6007404 (Nucleic Acids Research, 2018).)
